Results as given in publication PMC5617235.

B1: Nanobody Nb474, C-terminally His-tagged (VHH)
VHH: QVQLQESGGGLVQPGGSLRLSCAASETALTYYAIGWFRQAPGKEREGVSCISRINSGSGARTDYADSVKGRFTISRDDAKNTVTLQMNSLEPEDTARYYCALDTTDRYDSANGRYYCTISSDTYDYWGQGTQVTVSS

What was measured:
[1] = molecular target: T. congolense fructose-1,6-bisphosphate aldolase, wild type (Trypanosoma congolense); experiment: SEC; analytical SEC of TcoALD alone; Superdex 200 HR 10/30, 50 mM MES, 500 mM NaCl, pH 6.7; calibrated with the Bio-Rad standard
[2] = molecular target: T. congolense fructose-1,6-bisphosphate aldolase, wild type (Trypanosoma congolense); experiment: crystal structure; (Nb474-TcoALD)4 complex, His tags of both retained; 100 mM sodium cacodylate pH 6.5, 200 mM magnesium acetate, 10% PEG 8000, 20°C; 2.57 Å
[3] = molecular target: T. congolense fructose-1,6-bisphosphate aldolase, wild type (Trypanosoma congolense); experiment: SEC; analytical SEC of 1 mg TcoALD mixed with Nb474 at Nb474:TcoALD ratios 1:4, 2:4, 3:4, 4:4, 6:4, incubated at least 1 h; Superdex 200 HR 10/30, 50 mM MES, 500 mM NaCl, pH 6.7; peaks analysed by SDS-PAGE
[4] = molecular target: T. congolense fructose-1,6-bisphosphate aldolase A77E mutant (Trypanosoma congolense); experiment: SPR; SPR sandwich assay: immobilised Nb474 on CM5 saturated with a TcoALD variant, then Nb474 (0.5 nM to 1.0 uM) injected as second analyte; 20 mM HEPES, 150 mM NaCl, 0.005% Tween, 3.4 mM EDTA, pH 7.4; 1:1 Langmuir model for WT and A77E

Row | Molecule | stoichiometry N [1] | stoichiometry N [2] | stoichiometry N [3] | stoichiometry N (Nb474 per TcoALD monomer) [3] | Kd [4] [nM] | koff [4] [s⁻¹] | kon [4] [M⁻¹ s⁻¹]
1 | T. congolense fructose-1,6-bisphosphate aldolase, wild type (enzyme) | 2 | 4 | 4 | – | – | – | –
2 | B1 | – | – | – | 1 | 0.067 | 0.000141 | 2.11e+06
